In one data set the target is T1, Aurora-A kinase domain (UniProt O14965 122-403, C290A;K339C;C393A).
T1 sequence: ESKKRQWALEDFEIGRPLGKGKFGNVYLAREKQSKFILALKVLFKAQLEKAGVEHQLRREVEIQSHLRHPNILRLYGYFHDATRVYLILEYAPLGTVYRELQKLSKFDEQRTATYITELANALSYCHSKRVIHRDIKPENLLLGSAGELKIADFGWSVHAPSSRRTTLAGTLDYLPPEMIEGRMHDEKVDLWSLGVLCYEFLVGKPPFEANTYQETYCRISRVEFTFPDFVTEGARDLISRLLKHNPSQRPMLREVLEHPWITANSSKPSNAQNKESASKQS
Kind of data set: EMSA. Background: A gel shift assay detects complexes by their altered migration in electrophoresis.

Data set [1] concerns the target T2, Aurora-A 1-403, unphosphorylated (UniProt O14965 1-403).
T2 sequence: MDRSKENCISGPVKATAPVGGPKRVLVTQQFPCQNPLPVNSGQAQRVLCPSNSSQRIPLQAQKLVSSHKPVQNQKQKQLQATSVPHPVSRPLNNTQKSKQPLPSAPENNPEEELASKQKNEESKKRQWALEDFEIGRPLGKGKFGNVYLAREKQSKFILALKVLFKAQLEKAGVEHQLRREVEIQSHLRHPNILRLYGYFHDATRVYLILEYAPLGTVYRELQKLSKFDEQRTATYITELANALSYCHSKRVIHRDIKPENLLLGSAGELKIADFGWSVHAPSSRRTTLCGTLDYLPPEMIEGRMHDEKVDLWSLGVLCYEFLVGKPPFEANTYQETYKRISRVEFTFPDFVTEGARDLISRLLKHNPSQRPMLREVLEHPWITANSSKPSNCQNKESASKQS
Kind of data set: pull-down.

Data set [2] deals with T3, unphosphorylated Aurora-A 1-403 (UniProt O14965 1-403).
T3 sequence: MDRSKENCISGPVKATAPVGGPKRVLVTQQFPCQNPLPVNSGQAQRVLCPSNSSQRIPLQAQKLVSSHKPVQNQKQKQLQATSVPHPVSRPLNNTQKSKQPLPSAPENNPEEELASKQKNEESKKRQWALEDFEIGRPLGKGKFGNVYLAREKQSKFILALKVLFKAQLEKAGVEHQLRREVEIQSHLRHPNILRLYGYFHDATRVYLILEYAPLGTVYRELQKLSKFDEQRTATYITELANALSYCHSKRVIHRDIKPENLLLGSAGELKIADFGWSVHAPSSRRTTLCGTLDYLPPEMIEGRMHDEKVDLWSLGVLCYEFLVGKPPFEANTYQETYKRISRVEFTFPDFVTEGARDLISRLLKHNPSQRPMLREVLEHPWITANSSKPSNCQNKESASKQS
As to the kind of experiment: pull-down.

B1: UGhigh RNA, Cy5 (ssRNA)
RNA: UGCUGGGAUGGUCAUGGUGGGUGACCCUGGGAUGGCCGCGGUGGGUGACCCUGGAAUGGU
On to B1, for which, in the data set with Aurora-A kinase domain, the binding result is listed as “binds”.

B2: UGhigh RNA, biotin (ssRNA)
RNA: UGCUGGGAUGGUCAUGGUGGGUGACCCUGGGAUGGCCGCGGUGGGUGACCCUGGAAUGGU
Turning to B2, the binding result in data set [1] was “binds”.

B3: 3xFLAG-MYCN 1-137 (domain or fragment)
chain: MPSCSTSTMPGMICKNPDLEFDSLQPCFYPDEDDFYFGGPDSTPPGEDIWKKFELLPTPPLSPSRGFAEHSSEPPSWVTEMLLENELWGSPAEEDAFGLGGLGGLTPNPVILQDCMWSGFSAREKLERAVSEKLQHG
Turning to B3, the binding result in data set [2] was “binds”.

The values are drawn from doi:10.1101/2025.01.15.633177 (bioRxiv, 2025).
